The values that follow come from article PMC5496025, “Abstracts from the 10th C1-inhibitor deficiency workshop” (Allergy, Asthma, and Clinical Immunology : Official Journal …, 2017).

Assay [1] has as its target human bradykinin B2 receptor mutant #1 (found in HAE patients) (human) (UniProt P30411). As to the kind of experiment: radioligand binding; competition binding with radiolabeled BK (3H-BK); HEK293T cells transiently transfected with human wild-type or mutant B2R.
In assay [2] the target is human bradykinin B2 receptor mutant #2 (found in HAE patients) (human) (UniProt P30411). The description is as above.
The target of assay [3] is T1, commercially available active FXI (UniProt P03951 19-625).
T1 construct: active coagulation factor XI (cleaved into disulfide-linked heavy and light chains); also called active factor XI; source: bought: commercially available
Nature of the assay: SDS-PAGE of enzyme/C1-INH complexes; molar equivalent quantities of active enzymes and of C1-INH. The conditions noted are these: both partners purified.

T1 sequence (P03951 19-625): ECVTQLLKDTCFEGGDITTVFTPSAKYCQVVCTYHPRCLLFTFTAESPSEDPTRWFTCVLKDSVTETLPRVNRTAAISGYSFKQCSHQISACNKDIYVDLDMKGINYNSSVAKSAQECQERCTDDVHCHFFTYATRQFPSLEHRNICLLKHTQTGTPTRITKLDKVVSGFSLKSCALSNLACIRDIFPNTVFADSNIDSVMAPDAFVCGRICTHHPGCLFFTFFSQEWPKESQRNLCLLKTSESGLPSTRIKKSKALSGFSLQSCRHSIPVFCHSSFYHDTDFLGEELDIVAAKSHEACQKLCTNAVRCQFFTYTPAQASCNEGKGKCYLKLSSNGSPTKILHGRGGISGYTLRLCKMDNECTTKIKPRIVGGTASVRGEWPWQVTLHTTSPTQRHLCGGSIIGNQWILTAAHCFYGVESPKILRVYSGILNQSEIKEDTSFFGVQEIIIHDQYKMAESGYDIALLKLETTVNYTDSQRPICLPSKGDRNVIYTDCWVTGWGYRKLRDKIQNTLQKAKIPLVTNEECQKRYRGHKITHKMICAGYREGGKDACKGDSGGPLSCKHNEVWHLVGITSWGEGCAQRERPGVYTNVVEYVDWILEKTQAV
Sequence of human bradykinin B2 receptor mutant #2 (found in HAE patients) (human) (P30411 whole entry, change not shown): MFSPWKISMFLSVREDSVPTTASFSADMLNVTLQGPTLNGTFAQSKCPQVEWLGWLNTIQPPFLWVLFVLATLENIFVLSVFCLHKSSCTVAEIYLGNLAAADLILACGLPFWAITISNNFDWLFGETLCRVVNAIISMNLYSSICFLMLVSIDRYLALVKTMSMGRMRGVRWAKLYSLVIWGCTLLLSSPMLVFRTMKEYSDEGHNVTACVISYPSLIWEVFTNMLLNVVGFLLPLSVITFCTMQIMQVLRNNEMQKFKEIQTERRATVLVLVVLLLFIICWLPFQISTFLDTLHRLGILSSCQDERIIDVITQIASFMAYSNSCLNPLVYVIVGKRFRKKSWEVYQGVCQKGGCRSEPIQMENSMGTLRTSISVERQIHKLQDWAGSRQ
Sequence of human bradykinin B2 receptor mutant #1 (found in HAE patients) (human) (P30411 whole entry, stated change not applied): as the sequence (P30411 whole entry, change not shown) above

For “Bradykinin (from UniProt P01042 381-389) (peptide)”, the affinity came out at 0.35 nM in assay [1] and 0.46 nM in assay [2].

B1: commercial plasma-derived C1-INH, further purified by ion-exchange chromatography (natural protein, UniProt P05155 23-500, looked up)
chain: NPNATSSSSQDPESLQDRGEGKVATTVISKMLFVEPILEVSSLPTTNSTTNSATKITANTTDEPTTQPTTEPTTQPTIQPTQPTTQLPTDSPTQPTTGSFCPGPVTLCSDLESHSTEAVLGDALVDFSLKLYHAFSAMKKVETNMAFSPFSIASLLTQVLLGAGENTKTNLESILSYPKDFTCVHQALKGFTTKGVTSVSQIFHSPDLAIRDTFVNASRTLYSSSPRVLSNNSDANLELINTWVAKNTNNKISRLLDSLPSDTRLVLLNAIYLSAKWKTTFDPKKTRMEPFHFKNSVIKVPMMNSKKYPVAHFIDQTLKAKVGQLQLSHNLSLVILVPQNLKHRLEDMEQALSPSVFKAIMEKLEMSKFQPTLLTLPRIKVTTSQDMLSIMEKLEFFDFSYDLNLCGLTEDPDLQVSAMQHQTVLELTETGVEAAAASAISVARTLLVFEVQQPFLFVLWDQQHKFPVFMGRVYDPRA
notes: source: bought: commercial plasma-derived C1-INH, further purified by ion-exchange chromatography
Turning to B1, the binding result in assay [3] was “binds”.
